Assay results as given in US20230174672A1 (VEGA THERAPEUTICS, published 2023).

T1: human Protein S (human, UniProt P07225 42-676)
T1 construct: also called ProS; ProS1
T1 sequence: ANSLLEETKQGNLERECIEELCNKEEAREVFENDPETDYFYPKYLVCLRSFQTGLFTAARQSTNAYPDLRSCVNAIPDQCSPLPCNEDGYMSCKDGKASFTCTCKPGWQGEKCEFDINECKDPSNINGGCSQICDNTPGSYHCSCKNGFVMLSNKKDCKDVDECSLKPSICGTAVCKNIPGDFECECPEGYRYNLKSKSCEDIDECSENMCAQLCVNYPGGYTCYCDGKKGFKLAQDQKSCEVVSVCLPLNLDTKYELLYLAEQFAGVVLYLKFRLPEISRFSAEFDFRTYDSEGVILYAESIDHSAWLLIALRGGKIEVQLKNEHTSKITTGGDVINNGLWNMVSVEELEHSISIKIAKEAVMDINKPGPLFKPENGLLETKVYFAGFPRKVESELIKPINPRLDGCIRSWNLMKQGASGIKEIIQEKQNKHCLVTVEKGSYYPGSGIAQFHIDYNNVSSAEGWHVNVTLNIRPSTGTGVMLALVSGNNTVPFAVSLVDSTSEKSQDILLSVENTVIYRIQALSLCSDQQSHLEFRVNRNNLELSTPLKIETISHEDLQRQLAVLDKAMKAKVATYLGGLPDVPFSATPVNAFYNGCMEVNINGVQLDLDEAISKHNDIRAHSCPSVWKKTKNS

T2: Protein S-C4BP complex (human, UniProt P04003 49-597; P20851 18-252)
T2 construct: Bought C4BP preparation that contains Protein S precomplexed to human C4BP; also called ProS-C4BP Complex; C4BP-Protein S complex
T2 sequence 1: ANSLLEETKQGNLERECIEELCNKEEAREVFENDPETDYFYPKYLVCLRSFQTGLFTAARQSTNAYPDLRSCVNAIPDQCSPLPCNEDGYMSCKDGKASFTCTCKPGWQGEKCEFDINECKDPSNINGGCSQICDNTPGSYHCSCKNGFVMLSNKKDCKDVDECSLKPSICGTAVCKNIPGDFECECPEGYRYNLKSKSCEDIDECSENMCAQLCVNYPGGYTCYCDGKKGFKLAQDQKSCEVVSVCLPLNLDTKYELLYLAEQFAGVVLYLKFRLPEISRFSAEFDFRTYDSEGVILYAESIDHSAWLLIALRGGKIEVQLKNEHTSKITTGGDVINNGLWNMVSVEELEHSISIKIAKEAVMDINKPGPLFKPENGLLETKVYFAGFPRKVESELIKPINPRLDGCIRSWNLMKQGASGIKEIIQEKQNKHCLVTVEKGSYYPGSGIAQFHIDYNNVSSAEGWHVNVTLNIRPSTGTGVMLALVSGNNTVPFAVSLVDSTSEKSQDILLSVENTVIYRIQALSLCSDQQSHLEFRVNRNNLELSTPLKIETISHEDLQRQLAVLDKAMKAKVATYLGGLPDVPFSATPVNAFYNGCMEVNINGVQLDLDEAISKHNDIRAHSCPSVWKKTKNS
T2 sequence 2: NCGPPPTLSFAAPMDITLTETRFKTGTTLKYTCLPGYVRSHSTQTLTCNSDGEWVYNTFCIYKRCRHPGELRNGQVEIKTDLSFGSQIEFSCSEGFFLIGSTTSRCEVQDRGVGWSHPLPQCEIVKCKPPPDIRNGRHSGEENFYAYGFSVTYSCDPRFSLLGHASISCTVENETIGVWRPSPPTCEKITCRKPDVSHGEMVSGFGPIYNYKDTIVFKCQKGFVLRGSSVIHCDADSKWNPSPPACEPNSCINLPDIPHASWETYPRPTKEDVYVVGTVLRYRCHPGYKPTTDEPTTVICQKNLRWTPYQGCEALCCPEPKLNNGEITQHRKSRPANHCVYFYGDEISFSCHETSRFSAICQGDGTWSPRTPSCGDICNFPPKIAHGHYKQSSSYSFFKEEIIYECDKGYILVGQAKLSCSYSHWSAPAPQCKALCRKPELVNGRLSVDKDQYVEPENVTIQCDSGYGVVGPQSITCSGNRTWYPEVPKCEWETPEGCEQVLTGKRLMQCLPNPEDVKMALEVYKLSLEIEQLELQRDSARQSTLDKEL
T2 sequence 3: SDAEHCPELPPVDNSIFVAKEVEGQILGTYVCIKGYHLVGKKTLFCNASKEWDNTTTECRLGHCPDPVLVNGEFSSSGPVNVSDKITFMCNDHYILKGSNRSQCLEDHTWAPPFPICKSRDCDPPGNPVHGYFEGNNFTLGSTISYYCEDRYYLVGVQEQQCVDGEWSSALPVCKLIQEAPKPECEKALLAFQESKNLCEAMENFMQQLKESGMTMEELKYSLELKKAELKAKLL

T3: recombinant heavy chain Protein S (amino acids 42-296) (human, UniProt P07225 42-296)
T3 construct: Expressed and purified from HEK293 cells; No tags are stated; also called heavy chain of Protein S; Protein S heavy chain
T3 sequence: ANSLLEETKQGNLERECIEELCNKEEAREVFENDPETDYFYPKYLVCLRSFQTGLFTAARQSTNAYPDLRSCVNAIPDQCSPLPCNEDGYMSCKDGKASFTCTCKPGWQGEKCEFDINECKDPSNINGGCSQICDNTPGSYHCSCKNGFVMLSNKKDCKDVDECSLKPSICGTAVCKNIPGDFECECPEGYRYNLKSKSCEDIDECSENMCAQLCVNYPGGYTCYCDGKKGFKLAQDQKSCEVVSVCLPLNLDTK


Assays:
[1] = target: T4, cynomolgus monkey Protein S (cynomolgus monkey); assay: BLI, Octet; antibody on anti-human Fc capture probes, Protein S 7.81-500 nM, 4 mM calcium chloride
T4 construct: also called cyno Protein S
Description: (§1) Binding affinities of the Protein S antibodies provided herein were also further characterized using the Octet System (Sartorius). The binding of each antibody to both human and cynomolgus monkey (“cyno”) Protein S was determined. The human Fc antibodies were immobilized onto anti-human Fc capture probes by placing the probes into 10 µg/ml antibody solution in 10 mg/ml bovine serum albumin, 20 mM Tris pH 7.0, 150 mM NaCl, and 4 mM calcium chloride. […] Next, the probes were placed into buffer and the dissociation rates were measured.

[2] = target: T1, human Protein S; assay: as above
Description: as §1

[3] = target: T2, Protein S-C4BP complex; assay: Octet BLI, antibody captured on anti-human Fc probes; a dash indicates that the binding did not occur
Description: The Octet assay was used to determine the capability of the Protein S antibodies provided herein to bind to Protein S either alone, or when complexed to C4BP.
Using the Octet System (Sartorius), the binding of each antibody to both Protein S and Protein S in complex with C4BP was determined. It had previously been determined that the C4BP preparation from Complement Technologies contains Protein S precomplexed to human C4BP. […] Then the bound antibodies were placed into solutions containing either 75 µg/ml Protein S or 100 µg/ml C4BP (C4BP-Protein S complex).

[4] = target: T1, human Protein S; assay: ELISA, plate coated with human Protein S, 1 µg/ml antibody, 1 mM EDTA
Description: (§2) Calcium dependence of binding was determined using an ELISA based method. Briefly, high binding ELISA plates were coated with human Protein S. Then, buffer containing 1 µg/ml of antibody was applied to the well with either buffer containing 1 mM EDTA or 1 mM calcium chloride. If the level of binding of Protein S was reduced ([…] of the absorbance observed in the presence of calcium) when EDTA was added, it was concluded that the binding was calcium-dependent.

[5] = target: T3, recombinant heavy chain Protein S …; assay: ELISA, plate coated with recombinant Protein S heavy chain (aa 42-296), 1 µg/ml antibody, 1 mM calcium chloride
Description: (§3) Binding to the heavy chain of Protein S was determined using an ELISA based method. Briefly, high binding ELISA plates were coated with recombinant heavy chain Protein S expressed and purified from HEK293 cells. The “heavy chain” of Protein S represents a fragment of Protein S spanning amino acids 42-296. The coated plate was blocked with 1% casein solution. Then, buffer containing 1 µg/ml of antibody to be tested was applied to the well with buffer containing 1 mM calcium chloride.

[6] = target: T1, human Protein S; assay: ELISA, plate coated with human Protein S, 1 µg/ml antibody, 1 mM calcium chloride
Description: as §2

[7] = target: T3, recombinant heavy chain Protein S …; assay: ELISA on plate-coated recombinant Protein S heavy chain (aa 42-296), 1 mM calcium chloride
Description: as §3

[8] = target: T1, human Protein S; assay: SPR, Biacore X100; antibody captured on anti-human IgG (Fc), purified Protein S 2-128 nM as analyte, HBS-EP + 5 mM CaCl2, 1:1 model
Description: Binding interaction analysis was obtained by Surface Plasmon Resonance in a Biacore X100 instrument. The human anti-IgG (Fc) antibody was immobilized to the carboxymethylated dextran membrane on the sensor chip surface (CM5) via the free amine method for a contact time of 420 seconds. Human anti-IgG antibody at 25 µg/mL in 0.15 M NaCl was immobilized to 9,785 RU in 10 mM sodium acetate pH 5.0. Each tested monoclonal antibody was captured at a fixed concentration (0.25 µg/mL) with immobilized human anti-IgG antibody.
The following experimental conditions were used: purified Protein S was injected at concentrations: 2-128 nM, 1:2-fold dilution. Dilution and running buffer were as follows: Hbs-EP + 5 mM CaCl₂. Regeneration was obtained by 3 M MgCl₂. Binding constants (ka, kd, and KD) were determined using the Biacore X100 evaluation software, assuming a 1:1 interaction of Protein S and the tested monoclonal antibody under investigation.

Binder	Kd [1]	koff [1]	kon [1]	Kd [2]	koff [2]	kon [2]	binding result [3]	Binding to Protein S in EDTA (OD) [4]	Binding to heavy chain (OD) [5]	Binding to Protein S in CaCl2 (OD) [6]	binding result [7]	Kd [8]	koff [8]	kon [8]
Antibody 26 (antibody, human IgG4, V domains shown, also called Protein S Antibody with Human Fc; Combination 16) VH: EVQVVESGGGLVQPGGSLRLSCAASGFTLNSFWMSWVRQAPGKGLEWVANIKEDGSEKYYVDSVKGRFTISRDNAKNSLYLQMNGLRAEDTALYYCARETDILTAYYSDYYSYYGMDVWGQGTTVTVSA VL: DIQMTQSPSSLSASVRDRVTINCRASQSIRSYLNWYQQKPGKAPKLLIYAASSLQGGVPSRFSGSGSGTDFTLTISSLQPEDFATYYCQQSYSTPRTFGQGTKVEIK	0.349 nM	3.15e-05 s⁻¹	90300 M⁻¹ s⁻¹	0.466 nM	4.58e-05 s⁻¹	98500 M⁻¹ s⁻¹	no binding (tested: 100 µg/ml C4BP (C4BP-Protein S complex))	–	–	–	–	–	–	–
Antibody 32 (antibody, V domains shown, Human variable region with a rat Fc domain; also called Protein S Antibody with Rat Fc; parental rat antibody of Antibody 26) VH: EVQVVESGGGLVQPGGSLRLSCAASGFTLNSFWMSWVRQAPGKGLEWVANIKEDGSEKYYVDSVKGRFTISRDNAKNSLYLQMNGLRAEDTALYYCARETDILTAYYSDYYSYYGMDVWGQGTTVTVSA VL: DIQMTQSPSSLSASVRDRVTINCRASQSIRSYLNWYQQKPGKAPKLLIYAASSLQGGVPSRFSGSGSGTDFTLTISSLQPEDFATYYCQQSYSTPRTFGQGTKVEIK	–	–	–	–	–	–	–	0.33 OD	0.1 OD	0.82 OD	no binding	–	–	–
Antibody 5 (antibody, V domains shown, also called Protein S Antibody with Human Fc; Combination 8) VH: QVQLVQSGAEVKKPGASVKVSCKASGYTFTSYDINWVRQATGQGLEWMGWVNPNSDNIGYAQKFQGRVTMTRNTSISTAYMELSSLRSEDSAVYYCVRGAAAAWDAFAIWGQGTMVTVSS VL: EIVMTQSPATLSVSPGERATLSCRASQSVGSNLAWYQQKPGQAPRLLIYGASTRATGGPARFSGSGSGTEFTLTISSLQSEDFAVYYCQQYNNWPLTFGGGTKVEIK	4.19 nM	0.000283 s⁻¹	67500 M⁻¹ s⁻¹	7.8 nM	0.000493 s⁻¹	63300 M⁻¹ s⁻¹	–	–	–	–	–	28 nM	0.00227 s⁻¹	81200 M⁻¹ s⁻¹
Antibody 17 (antibody, V domains shown, Human variable region with a rat Fc domain; also called Protein S Antibody with Rat Fc; parental rat antibody of Antibody 5) VH: QVQLVQSGAEVKKPGASVKVSCKASGYTFTSYDINWVRQATGQGLEWMGWVNPNSDNIGYAQKFQGRVTMTRNTSISTAYMELSSLRSEDSAVYYCVRGAAAAWDAFAIWGQGTMVTVSS VL: EIVMTQSPATLSVSPGERATLSCRASQSVGSNLAWYQQKPGQAPRLLIYGASTRATGGPARFSGSGSGTEFTLTISSLQSEDFAVYYCQQYNNWPLTFGGGTKVEIK	–	–	–	–	–	–	–	0.39 OD	0.07 OD	0.54 OD	no binding	–	–	–
Antibody 10 (antibody, human IgG4, V domains shown, also called Protein S Antibody with Human Fc; Combination 9) VH: EVQLLESGGGLVQPGGSLRLSCAASRFSFSSYAMSWVRQAPGKGLEWVSAISDSGSNTYYADSVKGLFTISRDNSKNTLYLQMNSLRAEDTAVYYCAKNYESGGYYTFFDYWGQGTLVTVST VL: EIVMTQSPATLSVFPGERATLSCRASQSVRSNLAWHQQKLGQAPRLLLYGASTRATGIPARFSGSGSGTEFTLAISSLQSEDFAVYYCQQYNSWPFTFGGGTKVGIK	12.3 nM	0.00132 s⁻¹	107000 M⁻¹ s⁻¹	16.8 nM	0.00213 s⁻¹	127000 M⁻¹ s⁻¹	no binding (tested: 100 µg/ml C4BP (C4BP-Protein S complex))	–	–	–	–	31 nM	0.00514 s⁻¹	167000 M⁻¹ s⁻¹
Antibody 22 (antibody, V domains shown, Human variable region with a rat Fc domain; also called Protein S Antibody with Rat Fc; parental rat antibody of Antibody 10) VH: EVQLLESGGGLVQPGGSLRLSCAASRFSFSSYAMSWVRQAPGKGLEWVSAISDSGSNTYYADSVKGLFTISRDNSKNTLYLQMNSLRAEDTAVYYCAKNYESGGYYTFFDYWGQGTLVTVST VL: EIVMTQSPATLSVFPGERATLSCRASQSVRSNLAWHQQKLGQAPRLLLYGASTRATGIPARFSGSGSGTEFTLAISSLQSEDFAVYYCQQYNSWPFTFGGGTKVGIK	–	–	–	–	–	–	–	0.07 OD	0.06 OD	0.2 OD	no binding	–	–	–
